Each block holds one molecule with its values, some of them ahead of it. Square brackets hold non-standard residues; d marks the D form. Ends that are not written are not given here. Peptide text beside a SMILES is read from it. * marks the point of attachment. Piperazin2one(3S-Bu,6R-CO) = CCCC[C@@H]1NC[C@H](C(=O)*)NC1=O; X1 = N=C(N)NCCC[C@H]1C(=O)N[C@@H](C(N)=O)CN1*; keto‑piperazine surrogate = not defined here; Nle = CCCC[C@H](N)C(=O)O
Legend:
[1] = parameters: species or system Sprague-Dawley rats; details: rat, in vivo, iv, 2 mg/kg
Procedure: . […] The total run time was 6 minutes.

[2] = target: T1, human natriuretic peptide receptor A (human, UniProt P16066 33-1061); assay: cell-based or functional assay
T1 sequence (looked up): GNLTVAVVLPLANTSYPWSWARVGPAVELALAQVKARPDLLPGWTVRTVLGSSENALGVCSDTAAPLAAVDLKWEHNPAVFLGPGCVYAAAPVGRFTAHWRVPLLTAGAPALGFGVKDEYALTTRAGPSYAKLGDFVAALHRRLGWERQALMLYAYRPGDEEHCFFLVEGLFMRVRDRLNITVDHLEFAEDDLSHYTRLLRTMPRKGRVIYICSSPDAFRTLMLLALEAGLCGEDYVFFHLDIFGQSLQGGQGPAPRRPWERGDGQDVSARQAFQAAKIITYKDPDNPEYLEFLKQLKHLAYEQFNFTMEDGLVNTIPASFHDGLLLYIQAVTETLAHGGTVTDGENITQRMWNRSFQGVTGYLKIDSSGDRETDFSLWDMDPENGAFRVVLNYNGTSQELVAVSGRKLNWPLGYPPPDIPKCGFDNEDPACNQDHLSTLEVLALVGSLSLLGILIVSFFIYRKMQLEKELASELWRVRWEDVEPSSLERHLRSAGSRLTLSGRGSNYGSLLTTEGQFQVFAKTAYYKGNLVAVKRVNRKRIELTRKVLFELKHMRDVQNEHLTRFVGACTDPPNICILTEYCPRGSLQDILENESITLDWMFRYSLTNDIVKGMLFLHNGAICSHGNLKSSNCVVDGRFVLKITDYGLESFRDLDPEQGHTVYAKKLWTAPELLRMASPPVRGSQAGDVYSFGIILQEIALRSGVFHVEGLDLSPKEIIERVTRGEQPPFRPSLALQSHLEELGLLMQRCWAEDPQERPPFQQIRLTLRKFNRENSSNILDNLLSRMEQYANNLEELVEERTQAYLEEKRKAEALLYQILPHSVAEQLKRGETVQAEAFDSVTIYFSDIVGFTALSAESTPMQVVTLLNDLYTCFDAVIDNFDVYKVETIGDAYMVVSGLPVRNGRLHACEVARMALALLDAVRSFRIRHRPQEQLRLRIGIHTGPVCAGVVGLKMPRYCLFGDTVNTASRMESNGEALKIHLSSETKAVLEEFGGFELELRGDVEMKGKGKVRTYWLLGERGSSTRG

[3] = target: T1, human natriuretic peptide receptor A; assay: competitive inhibition of [125I]-ANP binding to HEK-hNPRA membrane homogenates
Procedure: Competitive binding assay. A competitive inhibition binding assay was performed using crude membrane homogenates prepared from HEK-hNPRA cells. To prepare membrane homogenates, cells were rinsed with phosphate-buffered saline and incubated for 15 minutes at 4° C. in hypotonic lysis buffer (10 mM Tris, pH 7.4+5 mM EDTA). Cells were transferred from plates to polypropylene tubes and homogenized. Homogenates were centrifuged at 25,000×g for 20 minutes. Pellets were resuspended in buffer consisting of 50 mM Tris (pH 7.4) and 1 mM EDTA, homogenized and centrifuged at 25,000×g for 20 minutes. Pellets were resuspended in buffer consisting of 100 mM Tris (pH 7.4) and 10 mM MgCl_2 and stored at −80° C. until needed. On the day of an assay, homogenates were thawed and homogenized. […] Assays were stopped by addition of cold wash buffer (phosphate-buffered saline) followed by filtration using a vacuum manifold. Bound radioactivity was determined using a gamma counter. […] Data were analyzed using GraphPad Prism® curve-fitting software.

Molecule: CCCC[C@@H]1NC[C@H](C(=O)N[C@@H](C)C(=O)N[C@@H](Cc2c[nH]cn2)C(=O)N[C@@H](Cc2ccccc2)C(=O)NCC(=O)NCC(=O)N[C@@H](CCCNC(=N)N)C(=O)N[C@@H](CCCC)C(=O)N[C@@H](CC(=O)O)C(=O)N[C@@H](CCCNC(=N)N)C(=O)N[C@H](C(=O)N[C@@H](CO)C(=O)N[C@@H](C)C(=O)N[C@@H](Cc2ccc(O)cc2)C(=O)N2C[C@H](C(N)=O)NC(=O)[C@@H]2CCCNC(=N)N)[C@@H](C)CC)NC1=O [Construct 1-30] ({Piperazin2one(3S-Bu,6R-CO)}-AHFGGR[Nle]DRISAY-X1)
AUC [1]: 0.139 µM·h | Vd [1]: 0.6 L/kg | clearance [1]: 131 mL/min/kg | half-life [1]: 6 min

Molecule: [keto‑piperazine surrogate]AHFGGR[Nle]DRISAYR (reading uncertain; also: further groups not given here, Linear synthetic construct) [Construct 1-9]
EC50 (accumulation of intracellular cGMP) [2]: 550 nM | Ki [3]: 14.5 nM

B1: Construct 1-16 (peptide)
peptide: [Nle]AHFGGR[Nle]DRISAY[keto‑piperazine surrogate]
modifications: reading uncertain; also: further groups not given here
notes: Linear synthetic construct modelled on mini-ANP
EC50 (accumulation of intracellular cGMP) [2]: 340 nM | Ki [3]: 88.5 nM

More lines, in order of falling Ki [3], values ahead:

EC50 (accumulation of intracellular cGMP) [2]: 80.5 nM | Ki [3]: 8.7 nM
Molecule: [keto‑piperazine surrogate]AHFGGR[Nle]DRISAY[keto‑piperazine surrogate] (reading uncertain; also: further groups not given here, Linear synthetic construct) [Construct 1-30]

EC50 (accumulation of intracellular cGMP) [2]: ~12 nM | Ki [3]: 0.2 nM
Molecule: [keto‑piperazine surrogate]AHFGGR[Nle]DRISAY[keto‑piperazine surrogate] (reading uncertain; also: further groups not given here, Linear synthetic construct) [Construct 1-49]

Reference: patent US7795221B2, “Linear natriuretic peptide constructs” (Palatin Technologies, Inc., priority 2006, dated 2010)
